Test results from US20180037654A1 (ADURO BIOTECH HOLDINGS EUROPE B V, published 2018).
Positions count from the first letter of the chain named. In names and notes the source's numbering stands.

T1: Mou-Hum-CTLA-4 (mouse/human chimera)
T1 construct: Mouse residues on strand 1, 2, 5 and 6 and human residues on strand 3, 4, 7 and 8; transiently expressed on CHO-K1 cells; also called mouse-human variant; mouse-human exchange mutant
T1 chain: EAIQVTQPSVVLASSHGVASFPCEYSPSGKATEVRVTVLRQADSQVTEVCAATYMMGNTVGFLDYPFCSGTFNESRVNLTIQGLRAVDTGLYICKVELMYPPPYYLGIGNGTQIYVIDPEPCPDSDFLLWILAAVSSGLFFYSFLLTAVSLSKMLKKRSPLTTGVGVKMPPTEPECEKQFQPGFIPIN

B1: hCTLA4.27H6L1 (antibody, human IgG4 S228P, kappa, V domains shown)
VH: EVQLLESGPELVRPGSSVKISCKASGYSFTTYWMNWVKQRPGKGLEWIGMIHPSDSETSLNQAFKDKVKLTAATSASIAYLEFSSLRNEDSAVYYCARMGRRNPYYFDYWGQGTLVTVSS
VL: DIQMTQSPSSLSASVGDRVTITCRPSENLYTNLAWYQQKPGKAPKLLLYGATNLADGVPSRFSGSGSGTDYTLTISSLQPEDFATYYCQHLWGTPFTFGQGTKLEIKR
notes: Humanized, human IgG4 (S228P) kappa; H6 read as hCTLA4.27VH6, L1 as hCTLA4.27VL1
B2: hCTLA4.27H6L3 (antibody, human IgG4 S228P, kappa, V domains shown)
VH: B1 VH
VL: B1 VL with R18T, P80S
notes: Humanized, human IgG4 (S228P) kappa; H6 read as hCTLA4.27VH6, L3 as hCTLA4.27VL3
B3: hCTLA4.27H6L5 (antibody, human IgG4 S228P, kappa, V domains shown)
VH: B1 VH
VL: B1 VL with S7A, P80A, Q100G
notes: Humanized, human IgG4 (S228P) kappa; H6 read as hCTLA4.27VH6, L5 as hCTLA4.27VL5
B4: hCTLA4.27H3L1 (antibody, human IgG4 S228P, kappa, V domains shown)
VH: EVQLVQSGAVVAKPGSSVKVSCKASGYSFTTYWMNWVRQAPGQGLEWMGMIHPSDSETSLNQAFKDRVTITADKSTSTAYMELSSLTSEDTAVYYCARMGRRNPYYFDYWGQGTTVTVSS
VL: B1 VL
notes: Humanized, human IgG4 (S228P) kappa; H3 read as hCTLA4.27VH3, L1 as hCTLA4.27VL1
B5: hCTLA4.27H2L1 (antibody, human IgG4 S228P, kappa, V domains shown)
VH: B4 VH with V11L, A12V, S16A, A40R, Q43K, M48I, R67K, K74E, E82Q, T87R
VL: B1 VL
notes: Humanized, human IgG4 (S228P) kappa; H2 read as hCTLA4.27VH2, L1 as hCTLA4.27VL1
B6: hCTLA4.27H2L3 (antibody, human IgG4 S228P, kappa, V domains shown)
VH: B4 VH with V11L, A12V, S16A, A40R, Q43K, M48I, R67K, K74E, E82Q, T87R
VL: B1 VL with R18T, P80S
notes: Humanized, human IgG4 (S228P) kappa; H2 read as hCTLA4.27VH2, L3 as hCTLA4.27VL3
B7: hCTLA4.27H3L2 (antibody, human IgG4 S228P, kappa, V domains shown)
VH: B4 VH
VL: B1 VL with L48I, D70E, Y71F, T72S, T74S, Q100G, L104V
notes: Humanized, human IgG4 (S228P) kappa; H3 read as hCTLA4.27VH3, L2 as hCTLA4.27VL2
B8: hCTLA4.27H3L3 (antibody, human IgG4 S228P, kappa, V domains shown)
VH: B4 VH
VL: B1 VL with R18T, P80S
notes: Humanized, human IgG4 (S228P) kappa; H3 read as hCTLA4.27VH3, L3 as hCTLA4.27VL3
B9: hCTLA4.27H3L5 (antibody, human IgG4 S228P, kappa, V domains shown)
VH: B4 VH
VL: B1 VL with S7A, P80A, Q100G
notes: Humanized, human IgG4 (S228P) kappa; H3 read as hCTLA4.27VH3, L5 as hCTLA4.27VL5
B10: hCTLA4.27H4L1 (antibody, human IgG4 S228P, kappa, V domains shown)
VH: B4 VH with V10E, A12K, S16A, I70M, A72R, K74T, A79V, T87R, T115L
VL: B1 VL
notes: Humanized, human IgG4 (S228P) kappa; H4 read as hCTLA4.27VH4, L1 as hCTLA4.27VL1
B11: hCTLA4.27H4L3 (antibody, human IgG4 S228P, kappa, V domains shown)
VH: B4 VH with V10E, A12K, S16A, I70M, A72R, K74T, A79V, T87R, T115L
VL: B1 VL with R18T, P80S
notes: Humanized, human IgG4 (S228P) kappa; H4 read as hCTLA4.27VH4, L3 as hCTLA4.27VL3
B12: hCTLA4.27H4L5 (antibody, human IgG4 S228P, kappa, V domains shown)
VH: B4 VH with V10E, A12K, S16A, I70M, A72R, K74T, A79V, T87R, T115L
VL: B1 VL with S7A, P80A, Q100G
notes: Humanized, human IgG4 (S228P) kappa; H4 read as hCTLA4.27VH4, L5 as hCTLA4.27VL5
B13: hCTLA4.27H4L2 (antibody, human IgG4 S228P, kappa, V domains shown)
VH: B4 VH with V10E, A12K, S16A, I70M, A72R, K74T, A79V, T87R, T115L
VL: B1 VL with L48I, D70E, Y71F, T72S, T74S, Q100G, L104V
notes: Humanized, human IgG4 (S228P) kappa; H4 read as hCTLA4.27VH4, L2 as hCTLA4.27VL2
B14: hCTLA4.27H6L2 (antibody, human IgG4 S228P, kappa, V domains shown)
VH: B1 VH
VL: B1 VL with L48I, D70E, Y71F, T72S, T74S, Q100G, L104V
notes: Humanized, human IgG4 (S228P) kappa; H6 read as hCTLA4.27VH6, L2 as hCTLA4.27VL2
B15: hCTLA4.27A.C1 (antibody, V domains shown)
VH: QVQLQQPGAVLVRPGVSVKLSCKASGYSFTTYWMNWVKQRPGQGLEWIGMIHPSDSETSLNQAFKDKATLTIDKSSSTAYMQLSSPTSEDSAVYFCARMGRRNPYYFDYWGQGTTLTVSS
VL: DIQMTQSPVSLSVSVGETVTITCRPSENLYTNLAWYQQKQGKSPQLLVYGATNLADGVPSRFSGSGSGTQYSLRINSLQSEDFGTYYCQHLWGTPFTFGSGTKLELK
notes: Chimeric: mouse variable domains on human IgG1, kappa; also called hCTLA4.27A chimeric hIgG1
B16: hCTLA4.27H2L2 (antibody, human IgG4 S228P, kappa, V domains shown)
VH: B4 VH with V11L, A12V, S16A, A40R, Q43K, M48I, R67K, K74E, E82Q, T87R
VL: B1 VL with L48I, D70E, Y71F, T72S, T74S, Q100G, L104V
notes: Humanized, human IgG4 (S228P) kappa; H2 read as hCTLA4.27VH2, L2 as hCTLA4.27VL2
B17: hCTLA4.27H2L5 (antibody, human IgG4 S228P, kappa, V domains shown)
VH: B4 VH with V11L, A12V, S16A, A40R, Q43K, M48I, R67K, K74E, E82Q, T87R
VL: B1 VL with S7A, P80A, Q100G
notes: Humanized, human IgG4 (S228P) kappa; H2 read as hCTLA4.27VH2, L5 as hCTLA4.27VL5
B18: 10D1 (antibody, V domains shown)
VH: QVQLVESGGGVVQPGRSLRLSCAASGFTFSSYTMHWVRQAPGKGLEWVTFISYDGNNKYYADSVKGRFTISRDNSKNTLYLQMNSLRAEDTAIYYCARTGWLGPFDYWGQGTLVTVSS
VL: not shown

The binders below were run against T2, human CTLA-4 (Y166G and Y183G) expressed on CHO-K1.hCTLA-4 cells (human, UniProt P16410 36-223) (assay: CELISA on CHO-K1.hCTLA-4 cells).
Protocol: Binding of the humanized antibodies to hCTLA-4 was studied in CELISA format. CHO-K1.hCTLA-4 cells were seeded in culture medium (DMEM-F12 (Gibco) with 10% Fetal Bovine Serum (Hyclone) and Pen/Strep (Gibco)) in tissue culture plates and cultured at 37° C., 5% CO₂ and 95% humidity until they were confluent. Subsequently, culture medium was removed and cells were incubated for 1 hour at 37° C., 5% CO₂ and 95% humidity with purified hCTLA-4 antibodies (10 μg/ml and dilutions thereof). Next, cells were washed with PBS/0.05% Tween (PBST) and incubated for 1 hour at 37° C., 5% CO₂ and 95% humidity with goat-anti-human IgG-HRP (Southern Biotechnology) or goat-anti-mouse IgG-HRP (Southern Biotechnology). Subsequently, cells were washed 3 times with PBST and anti-hCTLA-4 immunoreactivity was visualized with TMB Stabilized Chromagen (Invitrogen). Reactions were stopped with 0.5 M H₂SO₄ and absorbances were read at 450 and 610 nm.
Target sequence in this assay (P16410 36-223 Y201G/Y218G limits assumed): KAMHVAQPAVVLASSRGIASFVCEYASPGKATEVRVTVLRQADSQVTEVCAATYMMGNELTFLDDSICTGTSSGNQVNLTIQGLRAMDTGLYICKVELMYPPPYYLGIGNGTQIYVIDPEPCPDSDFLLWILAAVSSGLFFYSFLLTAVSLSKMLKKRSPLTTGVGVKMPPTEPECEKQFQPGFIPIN
Work on B1 yielded an EC50 of 0.044 nM.
In the case of B2, the EC50 is reported as 0.028 nM.
In the case of B3, the EC50 is reported as 0.036 nM.
B4 gave an EC50 of 0.07 nM.
Binder B5 has an EC50 of 0.042 nM.
B6 showed an EC50 of 0.051 nM.
Work on B7 yielded an EC50 of 0.065 nM.
With B8 the EC50 was 0.101 nM.
Work on B9 yielded an EC50 of 0.082 nM.
For B10, the EC50 was 0.07 nM.
For B11, the EC50 was 0.051 nM.
B12 showed an EC50 of 0.061 nM.
B13 showed an EC50 of 0.047 nM.
Work on B14 yielded an EC50 of 0.027 nM.
B15 gave an EC50 of 0.022 nM.
B16 showed an EC50 of 0.044 nM.
B17 was tested, and the EC50 was 0.045 nM.

The binders below were run against T2, human CTLA-4 (Y166G and Y183G) … (assay: CELISA on CHO-K1.hCTLA-4 cells (Example 6)).
Protocol: (§1) In short, CELISA for hCTLA-4 binding was performed on CHO-K1.hCTLA-4 cells. […] Once the cells were confluent culture medium was removed and cells were incubated for 1 hour with the hCTL4.27 antibodies and control antibodies (10 μg/ml and dilutions thereof) at 37° C., 5% CO₂ and 95% humidity. […] Cells were then washed with PBST followed by addition of Streptavidin-HRP conjugate on the cells, which was incubated for 1 hour at 37° C., 5% CO₂ and 95% humidity. […] Reactions were stopped with 0.5 M H₂SO₄ and absorbances were read at 450 and 610 nm. IC50 values represent the concentration at which half of the inhibition is observed.
For B15, the EC50 was 0.034 nM.

Each binder was assayed against T2, human CTLA-4 (Y166G and Y183G) … (assay: CELISA, blockade of biotinylated hCD80/Fc binding to CHO-K1.hCTLA-4 cells).
Protocol: CHO-K1.hCTLA-4 cells were seeded in tissue culture plates and incubated at 37° C., 5% CO₂ and 95% humidity in culture medium. Once the cells were confluent culture medium was removed and cells were incubated for 1 hour with the humanized hCTL4.27 antibody variants (10 μg/ml and dilutions thereof) at 37° C., 5% CO₂ and 95% humidity. […] Cells were then washed with PBST followed by addition of Streptavidin-HRP conjugate on the cells, which was incubated for 1 hour at 37° C., 5% CO₂ and 95% humidity. […] Reactions were stopped with 0.5 M H₂SO₄ and absorbances were read at 450 and 610 nm. […] IC50 values represent the concentration at which half of the inhibition is observed.
Target sequence in this assay (P16410 36-223 Y201G/Y218G limits assumed): as above
Binder B1 has an IC50 of 2.06 nM.
Binder B2 has an IC50 of 1.82 nM.
For B3, the IC50 was 2.57 nM.
In the case of B4, the IC50 is reported as 2.52 nM.
B5 was tested, and the IC50 was 2.98 nM.
In the case of B6, the IC50 is reported as 2.97 nM.
With B7 the IC50 was 2.06 nM.
B8 was tested, and the IC50 was 3.37 nM.
B9 showed an IC50 of 3.67 nM.
With B10 the IC50 was 3.33 nM.
B11 was tested, and the IC50 was 3.26 nM.
Work on B12 yielded an IC50 of 3.08 nM.
B13 gave an IC50 of 2.52 nM.
In the case of B14, the IC50 is reported as 1.8 nM.
B15 was tested, and the IC50 was 1.53 nM.
For B16, the IC50 was 2.59 nM.
B17 gave an IC50 of 2.72 nM.

These binders were tested against T2, human CTLA-4 (Y166G and Y183G) … (assay: CELISA, blockade of biotinylated hCD80/Fc binding to CHO-K1.hCTLA-4 cells (Example 6)).
Protocol: as §1
For B15, the IC50 was 1.45 nM.

The binders below were run against T2, human CTLA-4 (Y166G and Y183G) … (assay: CELISA, blockade of biotinylated hCD86/Fc binding to CHO-K1.hCTLA-4 cells (Example 6)).
Protocol: as §1
Work on B15 yielded an IC50 of 1.18 nM.

Target: T1, Mou-Hum-CTLA-4
Test: CELISA on CHO-K1 cells transiently transfected with Mou-Hum-CTLA-4, panel Mouse/Human
Protocol: The cDNAs encoding these constructs (SEQ ID NO: 41 and 43, respectively) were synthesized and subcloned into the pCI-Neo vector (GeneArt). […] To this end CHO-K1 cells were transiently transfected, using Lipofectamine 2000 (Invitrogen), with the pCI-Neo vectors expressing human CTLA-4 (hCTLA-4), mouse CTLA-4 (mCTLA-4) (SEQ ID NO: 45), Hum-Mou-CTLA-4, and Mou-Hum-CTLA-4 respectively. The transfected cells were cultured at 37° C., 5% CO₂ and 95% humidity in medium (DMEM-F12 (Gibco) with 5% New Born Calf serum (Biowest) and Pen/Strep (Gibco)) until confluent. Subsequently, cells were trypsinized and seeded in tissue culture plates and cultured at 37° C., 5% CO₂ and 95% humidity in culture medium until confluent. Then, culture medium was removed and cells were incubated for 1 hour at 37° C., 5% CO₂ and 95% humidity with hCTLA-4 antibodies. Next, cells were washed with PBS/0.05% Tween (PBST) and incubated for 1 hour at 37° C., 5% CO₂ and 95% humidity with 1:2,000 goat-anti-human IgG-HRP (Jackson Immunoresearch). After that, cells were washed 3 times with PBST and anti-CTLA-4 immunoreactivity was visualized with TMB Stabilized Chromagen (Invitrogen).
In the case of B18, the “EC50 (read off the curve)” value is reported as roughly 0.07 nM.
